B1: IgSF (IgI3) domain of β protein, recombinant, biotinylated [modified: biotin, C-terminal] [Streptococcus agalactiae (GBS)] / recombinant CEACAM1 N-terminal domain, unglycosylated, 6xHis tagged [human] (parent complex)
chain 1: ANENNQQKIELTVSPENITVYEGEDVKFTVTAKSDSKTTLDFSDLLTKYNPSVSDRISTNYKTNTDNHKIAEITIKNLKLNESQTVTLKAKDDSGNVVEKTFTITVQKKEEKQLPSTGGS
chain 2: MAQLTTESMPFNVAEGKEVLLLVHNLPQQLFGYSWYKGERVDGNRQIVGYAIGTQQATPGPANSGRETIYPNASLLIQNVTQNDTGFYTLQVIKSDLVNEEATGQFHVY
B2: recombinant CEACAM1 N-terminal domain, unglycosylated, 6xHis tagged [human] / IgSF (IgI3) domain of β protein, recombinant, biotinylated [modified: biotin, C-terminal] [Streptococcus agalactiae (GBS)] (parent complex)
chain 1: B1 chain 2
chain 2: B1 chain 1

The first assay covers variants of B1. The experiment in a line: flow cytometry on coated dynabeads; parent: 800; read off a plot. (In flow cytometry, cells or beads pass a laser one at a time.)
chain 2 MAQLTTESMPFNVAEGKEVLLLVHNLPQQLFGYSWYKGERVDGNRQIVGYAIGTQQATPGPANSGRETIYPNASLLIQNVTQNDTGFYTLQVIKSDLVAEEATGQFHVY [chain 2 N99A]: the response is roughly 540 Geometric MFI.

As for chain 2 MAQLTTESMPFNVAEGKEVLLLVHNLPQQLFGYSWYKGERVDGNRAIVGYAIGTQQATPGPANSGRETIYPNASLLIQNVTQNDTGFYTLQVIKSDLVNEEATGQFHVY [chain 2 Q46A], the response is roughly 510 Geometric MFI.

In the case of chain 2 MAQLTTESMPFNVAEGKEVLLLVHNLPQQLFGYSWYKGERVDGNRQIVGYAIGTQQATPGPANSGRETIYPNASLLIQNVTQNDTGFYTLQVIKSDLANEEATGQFHVY [chain 2 V98A], the response was roughly 590 Geometric MFI.

Regarding chain 2 MAQLTTESMPFNVAEGKEVLLLVHNLPQQLFGYSWYKGERVDGNRQIVGYAIGTQQATPGPANSGRETIYPNASLLIQNVTQNDTGFYTLQVIKSDAVNEEATGQFHVY [chain 2 L97A], the response was roughly 450 Geometric MFI.

In the case of chain 2 MAQLTTESMPFNVAEGKEVLLLVHNLPQQLFGYSWYKGERVDGNRQIVGYAIGTQQATPGPANSGRETIYPNASLLIQNVTQNDTGFYTLAVIKSDLVNEEATGQFHVY [chain 2 Q91A], the response is roughly 230 Geometric MFI.

For the variant chain 2 MAQLTTESMPFNVAEGKEVLLLVHNLPQQLAGYSWYKGERVDGNRQIVGYAIGTQQATPGPANSGRETIYPNASLLIQNVTQNDTGFYTLQVIKSDLVNEEATGQFHVY [chain 2 F31A], the response was roughly 390 Geometric MFI.

Regarding chain 2 MAQLTTESMPFNVAEGKEVLLLVHNLPQQLFGYSWYKGERVDGNRQIVGYAIGTQQATPGPANSGRETIYPNASLLIQNVTQNDTGFYTLQVAKSDLVNEEATGQFHVY [chain 2 I93A], the response was roughly 240 Geometric MFI.

Variants of B2 are the subject of the next assay. Put plainly: flow cytometry on coated dynabeads; parent: 390; read off a plot.
With chain 2 ANENNQQKIELTVSPENITVYEGEDVKFTVTAKSDSKTTLDFSDLATKYNPSVSDRISTNYKTNTDNHKIAEITIKNLKLNESQTVTLKAKDDSGNVVEKTFTITVQKKEEKQLPSTGGS [chain 2 L46A], the response is roughly 200 Geometric MFI.

With chain 2 ANENNQQKIELTVSPENITVYEGEDVKFTVTAKSDSKTTLDFSDLLTKYNPSVSARISTNYKTNTDNHKIAEITIKNLKLNESQTVTLKAKDDSGNVVEKTFTITVQKKEEKQLPSTGGS [chain 2 D55A], the response is roughly 340 Geometric MFI.

Turning to chain 2 ANENNQQKIELTVSPENITVYEGEDVKFTVTAKSDSKTTLDFSDLLTKYNPSASDRISTNYKTNTDNHKIAEITIKNLKLNESQTVTLKAKDDSGNVVEKTFTITVQKKEEKQLPSTGGS [chain 2 V53A], the response is roughly 280 Geometric MFI.

As for chain 2 ANENNQQKIELTVSPENITVYEGEDVKFTVTAKSDSKTTLDASDLLTKYNPSVSDRISTNYKTNTDNHKIAEITIKNLKLNESQTVTLKAKDDSGNVVEKTFTITVQKKEEKQLPSTGGS [chain 2 F42A], the response was roughly 750 Geometric MFI.

Source of the values: publication PMC8013792, “Bacterial protein domains with a novel Ig‐like fold target human CEACAM receptors” (The EMBO Journal, 2021).
